Assay results as given in US9326950B2, “Self-assembling nanoparticles composed of transmembrane peptides and their application for specific intra-tumor delivery of anti-cancer drugs” (The United States of America, as represented by the …, priority 2006, dated 2016).
Where no end group is shown, it is not given here.

How the values were obtained:
[1] = Fluorescence energy transfer between WMC77 and Alexa 546-labeled nanoparticles; type: physicochemical; settings: WMC77 final concentration 300 nM
[2] = Transmission electron microscopy of peptide nanoparticles; type: physicochemical; settings: negative charges replaced by positive charges
Method: Peptides were solubilized in DMSO to yield 32 mg/ml solution. DMSO stocks were diluted with phosphate buffered saline (PBS) to produce 0.05-0.5 mg/ml solutions. Two μl of a sample were applied directly on microscopy grids, air-dried, stained with 0.5% (w/v) osmium tetroxide (OsO4), and visualized with a Hitachi H-7000 electron microscope.

[3] = Multi-angle light scattering, molecular weight of peptide aggregates and degree of aggregation; type: physicochemical; settings: for MW (g/mol): 0.1 M Tris-HCl pH 7.2
Method: To determine the influence of hydrophilic tail length on nanoparticle aggregation, the degree of aggregation was determined by multi-angle light scattering for TM peptides with the amino acid sequences of SEQ ID NO: 1; SEQ ID NO: 1-PEG11; SEQ ID NO: 1-PEG27; SEQ ID NO: 1-PEG38; and SEQ ID NO: 1-GGGGG.
The peptides were dissolved in DMSO and diluted with 0.1 M Tris-HCl buffer (pH 7.2) to provide 0.4 mg/ml peptide solutions. This was used for further dilutions. The final concentration of DMSO was either 2.5% or 1.25% (kept constant for all dilutions in the series). The samples were sonicated at maximum intensity for 10 minutes and left at room temperature overnight (about 20 hours before measurements). The following day, the samples were centrifuged at 13200 rpm for 30 minutes.
Light scattering (LS) studies were performed by a DAWN EOS multi-angle detector (Wyatt Technology Corp., Santa Barbara, Calif.) at a laser wavelength of 690 nm. The LS detector was connected with an Agilent 1100 HPLC system (Agilent Technologies, Palo Alto, Calif.). The MALS detector was calibrated with HPLC grade toluene, 99.8% (Aldrich Chemicals, Milwaukee, Wis.), which was filtered through a […] Anotop-25 inorganic membrane filter and then normalized with albumin (bovine) 98% monomer (Sigma Chemicals, St. Louis, Mo.). The data were collected and processed using Astra software (Wyatt Technology Corp.; version 4.90.04).
To determine the molecular weight of the peptide aggregates and the aggregation state, LS micro-batch measurements were performed. In brief, solvent was delivered through the HPLC system, bypassing the column compartment, at a flow rate of 0.05 ml/min. 900 μl samples with different peptide concentrations were injected through the HPLC autosampler. Four peptide concentrations were analyzed (i.e., 0.05 mg/ml, 0.1 mg/ml, 0.2 mg/ml, and 0.4 mg/ml). The concentrations were determined from weight measurements, since strong light scattering made traditional UV-absorbance determination inaccurate. The LS signal was collected for each concentration. Molecular weight was determined for each concentration separately using Astra software with a Debye plot and the Zimm equation. A single slice of collected signal giving the smallest error was chosen for molecular weight calculation at each concentration.

[4] = WMC77 fluorescence emission with increasing amounts of nanoparticles; type: physicochemical; settings: increasing amounts of the nanoparticles
Method: FIG. 1 is a graph of fluorescence emission intensity (a.u.) versus concentration (mg/ml) of nanoparticles comprising SEQ ID NO: 1-PEG11 (represented by circles) or SEQ ID NO: 1-PEG38 (represented by open squares).
FIG. 2 is a graph of wavelength maximum (nm) versus concentration (μM) of nanoparticles comprising SEQ ID NO: 1-PEG11 (represented by circles) or SEQ ID NO: 1-PEG38 (represented by open squares).
Various amounts of nanoparticles (SEQ ID NO:1-PEG11 or SEQ ID NO 1-PEG38) were added to solutions of WMC77. The fluorescence emission intensity and shift in emission maxima were measured with the results depicted in FIGS. 1 and 2.

[5] = test system: MDA-MB-231 breast cancer cells; test: Survival in mouse model of breast cancer lung metastasis; type: in vivo, nude mice
Method: FIG. 3 is a graph of percent survival (%) versus days on treatment for three groups of nude mice intravenously injected with one million MDA-MB-231 breast cancer cells. On the day following the intravenous injection with the breast cancer cells and continuing twice weekly, the mice were intraperitoneally injected with (1) PBS only (Control); (2) 3 mg/kg of nanoparticles of SEQ ID NO: 1-PEG27 dissolved in PBS (X4-4-6, 3 mg/kg); or (3) 12 mg/kg of nanoparticles of SEQ ID NO: 1-PEG27 dissolved in PBS (X4-4-6, 12 mg/kg).
One million MDA-MB-231 breast cancer cells were injected in nude mice intraveneously on Day 0. On Day 1 and continuing twice weekly, mice were intraperitoneally injected with (1) 3 mg/kg of nanoparticles of the TM peptide of SEQ ID NO: 1-PEG27 dissolved in PBS; (2) 12 mg/kg of nanoparticles of the TM peptide of SEQ ID NO: 1-PEG27 dissolved in PBS; or (3) a control (PBS only).

[6] = test system: MDA-231 breast cancer cells; settings: mouse, in vivo
Method: A CXCR4-TM domain 2-derived pegylated peptide labeled with Alexa546 fluorescent dye was prepared. […] Ten μl of peptide were diluted with 630 μl PBS (to produce 2 mg/ml peptide solution), sonicated for 10 minutes, and used for intratumoral injection.
Nude mice were inoculated in a breast pad with one million MDA-231 breast cancer cells. Six weeks later, when tumor sizes reached about 5 mm in diameter, 0.1 ml of 2 mg/ml solution of the fluorescent nanoparticles in PBS were injected into a breast pad near the tumor.
Whole animals and excised tumors were imaged utilizing the Maestro 420 In-Vivo Spectral Imaging System (Cambridge Resources and Instrumentation, Inc.).

[7] = aggregate MW at 0.05 mg/ml peptide
[8] = aggregate MW at 0.1 mg/ml peptide
[9] = aggregate MW at 0.2 mg/ml peptide
[10] = aggregate MW at 0.4 mg/ml peptide
[11] = 3 mg/kg intraperitoneally twice weekly
[12] = 12 mg/kg intraperitoneally twice weekly

Compound	N, degree of aggregation (molecules per particle) ([3]; 0.05 mg/ml peptide)	N, degree of aggregation (molecules per particle) ([3]; 0.1 mg/ml peptide)	N, degree of aggregation (molecules per particle) ([3]; 0.2 mg/ml peptide)	N, degree of aggregation (molecules per particle) ([3]; 0.4 mg/ml peptide)	MW (g/mol) [3, 7]	MW (g/mol) [3, 8]	MW (g/mol) [3, 9]	MW (g/mol) [3, 10]	other results
NCCCN1CCN(CCCNc2ccc3ncn4c5ccccc5c(=O)c2c34)CC1 [WMC77, 5-{3-[4-(aminopropyl)-piperazin-1-yl]-propylamino}-2,10b-diaza-aceanthrylen-6-one, reference compound]									Fluorescence Intensity (a.u.) of WMC77 solutions ([1]; No TM peptide): 622 a.u.
LLFVITLPFWAVDAVANWYFGNKK [SEQ ID NO: 6]									particle size and uniformity [2]: much large particles with highly variable diameters
SEQ ID NO: 1-PEG11: TM peptide of SEQ ID NO: 1 with hydrophilic oligomer PEG11 added (LLFVITLPFWAVDAVANWYFGNDD; not fully specified; also: PEG11 added)	743 molecules per particle	316 molecules per particle	137 molecules per particle	54 molecules per particle	2,515,000 ± 69,000 g/mol	1,069,000 ± 20,000 g/mol	463,800 ± 6,800 g/mol	183,200 ± 900 g/mol	emission maxima of WMC77 [4]: a shift in emission maxima; fluorescence emission intensity of WMC77 [4]: an increase in fluorescence emission intensity
LLFVITLPFWAVDAVANWYFGNDD [SEQ ID NO: 1]	4090 molecules per particle	2478 molecules per particle	2494 molecules per particle		11,400,000 ± 40,000 g/mol	6,906,000 ± 22,000 g/mol	6,952,000 ± 22,000 g/mol		
SEQ ID NO: 1-PEG27: TM peptide of SEQ ID NO: 1 with hydrophilic oligomer PEG27 added; CXCR4 peptide nanoparticles (LLFVITLPFWAVDAVANWYFGNDD; not fully specified; also: PEG27 added)	286 molecules per particle	176 molecules per particle	167 molecules per particle	90 molecules per particle	1,171,000 ± 190,000 g/mol	719,400 ± 100,700 g/mol	682,000 ± 105,000 g/mol	367,100 ± 38,400 g/mol	survival by Day 75 [5, 11]: about 40%; survival by Day 91 [5, 11]: no surviving animals; body weight [5, 12]: continued to gain weight; survival by Day 75 [5, 12]: 100%; survival until the end of the experiment (Day 140) [5, 12]: a significant number of the animals administered 12 mg/kg of nanoparticles survived
SEQ ID NO: 1-GGGGG: TM peptide of SEQ ID NO: 1 with polyglycine tail GGGGG (LLFVITLPFWAVDAVANWYFGNDD; C-terminal GGGGG tail)	1614 molecules per particle	664 molecules per particle	282 molecules per particle	55 molecules per particle	4,957,000 ± 8,000 g/mol	2,041,000 ± 4,000 g/mol	865,600 ± 2,700 g/mol	169,700 ± 300 g/mol	
SEQ ID NO: 8-PEG27: deletion mutant lacking the five N-terminal amino acid residues of SEQ ID NO: 1, with PEG27 (TLPFWAVDAVANWYFGNDD; not fully specified; also: PEG27 added)		9 molecules per particle	10 molecules per particle	10 molecules per particle		29,550 ± 4,630 g/mol	32,660 ± 6,730 g/mol	34,520 ± 7,850 g/mol	
TM peptide-Alexa conjugate: CXCR4-TM domain 2-derived pegylated peptide SEQ ID NO: 1-Peg11-Hcy-Peg27 labeled with Alexa546 fluorescent dye (LLFVITLPFWAVDAVANWYFGNDD; also: Peg11-Hcy-Peg27 attached, Alexa546 label)									penetration of tumor vasculature [6]: effectively penetrate tumor vasculature; Fluorescence Intensity (a.u.) of WMC77 solutions ([1]; with additive): 295 a.u.
SEQ ID NO: 1-PEG38: TM peptide of SEQ ID NO: 1 with PEG38, obtained by sequential coupling of PEG11 and PEG27 (LLFVITLPFWAVDAVANWYFGNDD; also: PEG38 added (PEG11 + PEG27))		93 molecules per particle	19 molecules per particle	24 molecules per particle		436,100 ± 20,300 g/mol	90,950 ± 9,210 g/mol	110,500 ± 5,600 g/mol	emission maxima of WMC77 [4]: a shift in emission maxima; fluorescence emission intensity of WMC77 [4]: an increase in fluorescence emission intensity
